Laboratory results taken from patent publication US20160333063A1, “SOLUBLE HIGH MOLECULAR WEIGHT (HMW) TAU SPECIES AND APPLICATIONS THEREOF” (THE GENERAL HOSPITAL CORPORATION, priority 2013, published 2016).

Molecular target: amyloid beta (Aβ, measured as Aβ40) in conditioned medium from Tg2576 neuronal cultures (TgCM) (human and murine) (UniProt P05067)
Assay: immunodepletion of TgCM with 9 µg 6E10 and Protein G-Sepharose beads; Aβ40 ELISA of the supernatant (TgCM about 12 nM Aβ40 before depletion)

Sequence of amyloid beta (Aβ, measured as Aβ40) in conditioned medium from Tg2576 neuronal cultures (TgCM) (human and murine) (P05067 672-711 limits assumed): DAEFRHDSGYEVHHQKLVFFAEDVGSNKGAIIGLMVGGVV

Aβ40 left in the medium after immunodepletion: 0.1 nM
Substance: 6E10 (Signet), a high-titer mouse monoclonal Aβ antibody reactive to amino acid residue 1-16 of beta amyloid
